Key:
[1] = target: T1, acetylcholinesterase (AChE) (electric eel, UniProt O42275 24-633); experiment: ELONA; selection buffer, ionic strength ~0.15 M, 137 mM NaCl, 4 mM MgCl2; 8 mM Na2HPO4, 2 mM NaH2PO4, 2.7 mM KCl, 137 mM NaCl, 4 mM MgCl2, pH 7.4, room temperature, 2 h; wells coated with 10 nM AChE, blocked with 1% BSA; washes with 0.05% Tween 20; conditions: protein: native; label: 5'-biotin, detected by streptavidin-HRP
[2] = target: T1, acetylcholinesterase (AChE); experiment: ELONA; low ionic strength ~0.02 M, no NaCl, 4 mM MgCl2; 8 mM Na2HPO4, 2 mM NaH2PO4, 2.7 mM KCl, 137 mM NaCl, 4 mM MgCl2, pH 7.4, room temperature, 2 h; wells coated with 10 nM AChE, blocked with 1% BSA; washes with 0.05% Tween 20; conditions: protein: native; label: 5'-biotin, detected by streptavidin-HRP

T1 sequence (O42275 24-633): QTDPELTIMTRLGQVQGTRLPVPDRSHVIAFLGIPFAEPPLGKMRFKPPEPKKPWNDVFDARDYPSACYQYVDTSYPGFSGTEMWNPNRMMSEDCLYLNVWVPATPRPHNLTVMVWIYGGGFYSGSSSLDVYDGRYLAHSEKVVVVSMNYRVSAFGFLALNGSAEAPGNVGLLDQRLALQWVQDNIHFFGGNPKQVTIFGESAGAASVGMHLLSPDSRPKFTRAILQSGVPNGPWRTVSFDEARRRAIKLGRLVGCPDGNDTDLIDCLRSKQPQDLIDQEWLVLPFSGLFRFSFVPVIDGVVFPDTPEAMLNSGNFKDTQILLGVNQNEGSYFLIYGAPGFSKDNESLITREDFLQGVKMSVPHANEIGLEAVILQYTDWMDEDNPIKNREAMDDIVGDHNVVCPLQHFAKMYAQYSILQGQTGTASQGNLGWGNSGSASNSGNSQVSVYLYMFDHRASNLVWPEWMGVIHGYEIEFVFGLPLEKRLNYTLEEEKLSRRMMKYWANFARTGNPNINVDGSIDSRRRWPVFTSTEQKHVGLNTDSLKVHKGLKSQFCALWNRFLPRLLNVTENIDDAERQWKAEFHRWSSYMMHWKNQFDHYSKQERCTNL

B1: R15/19 (also R15/C19) (ssDNA)
DNA: AAGCATCCGCTGGTTGACTGTAGCTCTGGCAGACGTAGTGTGAAGGTACCAGCTATTGGGATCTTGGACCCTGCGAA
modifications: 5'-biotin (ELONA)
Kd [1]: 0.157 ± 0.042 nM | Kd [2]: 0.243 ± 0.047 nM

— article PMC6271157, “High Efficiency Acetylcholinesterase Immobilization on DNA Aptamer Modified Surfaces”
